For assay [1], the target named is T1, AQP1 (Homo sapiens, UniProt P29972).
T1 sequence (P29972 1-269): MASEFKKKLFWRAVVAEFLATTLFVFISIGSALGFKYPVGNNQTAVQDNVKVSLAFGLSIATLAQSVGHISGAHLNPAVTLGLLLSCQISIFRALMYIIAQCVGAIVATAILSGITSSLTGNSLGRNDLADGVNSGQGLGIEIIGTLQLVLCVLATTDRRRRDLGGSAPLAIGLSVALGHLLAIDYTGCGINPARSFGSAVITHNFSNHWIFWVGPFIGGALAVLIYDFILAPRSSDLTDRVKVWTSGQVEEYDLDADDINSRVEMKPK
To be noted: cited from earlier work.

In assay [2] the target is T2, AQP4 (Homo sapiens, UniProt P55087). The conditions noted are these: cited from earlier work.
T2 sequence (P55087 whole entry, species assumed): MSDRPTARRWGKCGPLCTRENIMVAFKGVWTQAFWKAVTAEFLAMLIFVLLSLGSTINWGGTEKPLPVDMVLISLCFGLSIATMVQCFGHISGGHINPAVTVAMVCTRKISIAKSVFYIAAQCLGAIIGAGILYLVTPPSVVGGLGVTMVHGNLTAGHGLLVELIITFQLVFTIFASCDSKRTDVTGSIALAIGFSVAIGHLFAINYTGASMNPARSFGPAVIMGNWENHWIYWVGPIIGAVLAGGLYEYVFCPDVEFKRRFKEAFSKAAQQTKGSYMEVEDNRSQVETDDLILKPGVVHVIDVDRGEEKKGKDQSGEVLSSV
Assay [3] deals with crude membranes from rat cerebellum. Kind of assay: Radioligand binding assay of [3H]peptide on crude membranes from rat cerebellum. The protocol:
The radiolabelled compound denoted [3H]peptide was custom synthesised from the unsaturated precursor 29 (Example 27) by Perkin Elmer Health Sciences Inc., 549 Albany Street, Boston, Mass. 02118, U.S.A. The radioactive compound was received as an EtOH solution. The total activity of the sample was 1 mCi. and the radiological concentration was 2 mCi/mL. The specific activity was 42.9 Ci/mmol and the radiochemical purity (determined by HPLC) 99.8%. The specific activity was determined by mass spectrometry.
Female Wistar rats weighing 250-300 g (Mollegaard, Ejby, Denmark) were used. Experimental protocols conform to National Institutes of Health guidelines for the care and use of animals.
Brain cerebella (1:5 wt/vol) in ice cold 0.3 M sucrose, 50 mM Hepes, pH 7.4, 2 mM EDTA, protease inhibitors (Complete; Roche, Mannheim, Germany) were homogenised in clay-beads-containing tubes by Fastprep shaker and centrifuged at 1,000 g for 10 min at 4° C. The supernatant was spun down at 42,000 g for 60 min at 4° C. […] Protein concentration was determined by the DC Protein Assay Kit (Bio-Rad). […]
Binding data were analysed by non-linear regression using Microsoft Excel with the Solver add-in. The non-specific binding was assumed to be linear as a function of the concentration of free [^3H]peptide and analysed by linear regression. […]

Assay [4] addresses T2, AQP4. The conditions noted are these: liposome-based assay; cited from earlier work.
Assay [5] has as its target crude membranes from rat cerebellum (rat). Kind of assay: radioligand saturation binding, non-linear regression, fit weighted 1/Y^2.
For assay [6] the target is unchanged. As to the kind of experiment: radioligand saturation binding, filter assay, crude membranes.
For assay [7] the target is unchanged. Kind of assay: radioligand saturation binding, non-linear regression, unweighted fit.
Assay [8] has the same target. Kind of assay: radioligand saturation binding, non-linear regression, fit weighted 1/Y.

Where two headings read alike, the source gives them in different places. Positions of bridges follow the written chain, without caps; N, C: chain ends. *: point of attachment. Boc = CC(C)(C)OC(=O)*

One may read the IC50 as the concentration that inhibits the measured activity by half. As a reminder, the Kd is the concentration at which binding is half-saturated.

With `CC[N+](CC)(CC)CC` [tetraethylammonium ions, tetraethylammonium], in assay [1] (R. Søgaard et al. 2008), the “Effect on AQP1” value was “no effect”. For the same molecule, the “Effect on AQP4” value in assay [2] (up to 10 mmolar concentration, B. Yang et al. 2006) is reported as “no effect”.

With `CC(=O)Nc1nnc(S(N)(=O)=O)s1` [Acetazolamide], in assay [1] (Y. Tanimura et al. 2009), the “Effect on water permeation through AQP1” value is “not through AQP1”. The “Effect on water permeation through AQP4” value in assay [2] (Y. Tanimura et al. 2009) was “reversibly inhibits”. In addition, the IC50 in assay [2] (Y. Tanimura et al. 2009, read-out: IC50 of inhibition of water permeation through AQP4) is over 1000 µM.

For the molecule “[^3H]peptide: radiolabelled compound custom synthesised from the unsaturated precursor 29 (Example 27); specific activity 42.9 Ci/mmol (Boc-PPSVVSG-OMe; bridge 3-6; not fully specified (bridges); also: tritium label)”, the Specific binding in assay [3] (difference without and with 100 μM unlabelled peptide) was 0.5-1 pmol/mg membrane protein. Besides, the dissociation constant (Kd) in assay [3] (specific binding, non-specific defined with 100 μM unlabelled peptide, read-out: Kd value (affinity)) was 0.1 to 0.2 µM.

Take `[Cl][Hg][Cl]` [mercury chloride]: the “Effect on AQP4” value in assay [4] is given as “inhibit AQP4”.

Boc-PPSVVSG-OMe (bridge 3-6; also: tritium label): the Bmax came out at 1920 cpm in assay [5], 2140 cpm in assay [7] and 1920 cpm in assay [8]. The figures for the Bmax (fmol/mg protein) in assay [5], in assay [7] and in assay [8] were 1000, 1120 and 1000, respectively. Besides, the Kd is 0.0927 µM in assay [5], 0.1 to 0.2 µM in assay [6], 0.107 µM in assay [7] and 0.0927 µM in assay [8]. The same molecule registered a specific binding (Bmax) (pmol/mg membrane protein) in assay [6] of 0.5 to 1.

Values taken from patent US8710008B2, “Compounds, compositions and use” (Universitetet I Oslo, priority 2008, dated 2014).
